Paper PMC11298613

Target: HA-bromoTAG-PPM1H

decrease in tail phosphorylation of dTAG-SMAD3 by immunoblot in U2OS cells co-expressing both, 2 h TGF-β with BDPIC 0.1-10 μM against DMSO: 50%
Substance: FLAG-dTAG-SMAD3
